The record followed here is patent publication US20200360435A1 (MIE UNIVERSITY, published 2020).

The chains are these.
B1: TCR2-1 (TCR, V domains shown)
V domain 1: EAQVTQNPRYLITVTGKKLTVTCSQNMNHEYMSWYRQDPGLGLRQIYYSMNVEVTDKGDVPEGYKVSRKEKRNFPLILESPSPNQTSLYFCASSPGLAGGVEQFFGPGTRLTVLE
V domain 2: RKEVEQDPGPFNVPEGATVAFNCTYSNSASQSFFWYRQDCRKEPKLLMSVYSSGNEDGRFTAQLNRASQYISLLIRDSKLSDSATYLCVVNIGFGNVLHCGSGTQVIVLP
notes: also called TCR having feature (C)
B2: TCR1-2 (TCR, V domains shown)
V domain 1: GAVVSQHPSRVICKSGTSVKIECRSLDFQATTMFWYRQFPKKSLMLMATSNEGSKATYEQGVEKDKFLINHASLTLSTLTVTSAHPEDSSFYICSARYGEVAFFGQGTRLTVVE
V domain 2: GENVEQHPSTLSVQEGDSAVIKCTYSDSASNYFPWYKQELGKGPQLIIDIRSNVGEKKDQRIAVTLNKTAKHFSLHITETQPEDSAVYFCAASRDNNDMRFGAGTRLTVKP
notes: also called TCR having feature (B)
B3: TCR2-2 (TCR, V domains shown)
V domain 1: GAVVSQHPSRVICKSGTSVKIECRSLDFQATTMFWYRQFPKKSLMLMATSNEGSKATYEQGVEKDKFLINHASLTLSTLTVTSAHPEDSSFYICSARAGGDTFGSGTRLTVVE
V domain 2: AQSVTQLDSHVSVSEGTPVLLRCNYSSSYSPSLFWYVQHPNKGLQLLLKYTSAATLVKGINGFEAEFKKSETSFHLTKPSAHMSDAAEYFCVVSVNDYKLSFGAGTTVTVRA
notes: also called TCR having feature (D)
B4: TCR5-2 (TCR, V domains shown)
V domain 1: B3 V domain 1 with R97K, G99S, G100E, D101Q, T102Y, S105P, V112T
V domain 2: SQQGEEDPQALSIQEGENATMNCSYKTSINNLQWYRQNSGRGLVHLILIRSNEREKHSGRLRVTLDTSKKSSSLLITASRAADTASYFCAADNYGQNFVFGPGTRLSVLP
notes: also called TCR having feature (F)
B5: TCR5-3 (TCR, V domains shown)
V domain 1: GVTQTPKFRVLKTGQSMTLLCAQDMNHEYMYWYRQDPGMGLRLIHYSVGEGTTAKGEVPDGYNVSRLKKQNFLLGLESAAPSQTSVYFCASSYSRDRGWSEAFFGQGTRLTVVE
V domain 2: AQKVTQAQTEISVVEKEDVTLDCVYETRDTTYYLFWYKQPPSGELVFLIRRNSFDEQNEISGRYSWNFQKSTSSFNFTITASQVVDSAVYFCALNVMNRDDKIIFGKGTRLHILP
notes: also called TCR having feature (G)

Substitutions are numbered along the chain they refer to.

This assay deals with PE-labeled HLA-A*02:01/Taxp11-19 ([…]) tetramer (human; HTLV-1). In words: tetramer staining of TCR-transduced human PBMCs, flow cytometry. In general terms: In flow cytometry, cells or beads pass a laser one at a time.
For B1, the “percent TCR-positive (tetramer-positive) CD4-positive cells among transfected cells” value is ≥ 5% and the “percent TCR-positive (tetramer-positive) CD8-positive cells among transfected cells” value was ≥ 10%.
As for B2, the “percent TCR-positive (tetramer-positive) CD4-positive cells among transfected cells” value is ≥ 5% and the “percent TCR-positive (tetramer-positive) CD8-positive cells among transfected cells” value is ≥ 10%.
In the same order, the values of B3 are ≥ 5% and ≥ 10%.
For the molecule B4, the “percent TCR-positive (tetramer-positive) CD4-positive cells among transfected cells” value was ≥ 5% and the “percent TCR-positive (tetramer-positive) CD8-positive cells among transfected cells” value is ≥ 10%.
On to B5, for which the “percent TCR-positive (tetramer-positive) CD4-positive cells among transfected cells” value is ≥ 5% and the “percent TCR-positive (tetramer-positive) CD8-positive cells among transfected cells” value is ≥ 10%.
